In the supplement of paper PMC10567573:

B1: CFHR2 (parent)
chain: FVENGHSESSGQTHLEGDTVQIIC
B2: PTPN9 (parent)
chain: TQHLPRECLPENLGGYVKIDLATW

Variants of: B1
Test: protein stability index of a GFP-peptide fusion (GPS, HEK-293T) (PSI 1-6); higher = more stable
Settings: c terminus: a fixed tail appended
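Note: lentivirally expressed fusions sorted by FACS into six bins by GFP to DsRed ratio, PSI derived from sequencing read proportions per bin multiplied by bin number.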

| Variant | protein stability index |
| --- | --- |
| Q21V | 1.85 |
| Q21N | 3.29 |
| Q21A | 3.11 |
| Q21C | 2.18 |
| Q21R | 2.9 |
| Q21K | 2.83 |
| Q21T | 2.79 |
| Q21H | 2.24 |
| Q21I | 1.82 |
| Q21F | 1.91 |
| Q21M | 1.92 |
| Q21D | 3.69 |
| Q21Y | 2.58 |
| Q21S | 2.91 |
| Q21G | 3.01 |
| Q21E | 3.15 |
| Q21L | 1.17 |
| Q21P | 3.04 |
| T19Y | 2.24 |
| T19E | 3.09 |
| T19L | 2.14 |
| T19S | 3.21 |
| T19Q | 3.19 |
| T19I | 2.62 |
| T19H | 3.1 |

| Variant | protein stability index |
| --- | --- |
| T19V | 3.3 |
| T19G | 3.25 |
| T19P | 3.13 |
| T19W | 1.53 |
| T19D | 3.68 |
| T19R | 2.37 |
| T19F | 2.66 |
| T19N | 3.71 |
| T19K | 2.82 |
| T19M | 2.33 |
| T19C | 2.84 |
| G17H | 2.99 |
| G17P | 2.81 |
| G17M | 2.29 |
| G17V | 2.11 |
| G17Q | 2.97 |
| G17Y | 1.73 |
| G17T | 2.91 |
| G17L | 2.08 |
| G17I | 2.05 |
| G17R | 2.52 |
| G17W | 1.79 |
| G17N | 2.9 |
| G17K | 2.54 |
| G17S | 2.77 |

| Variant | protein stability index |
| --- | --- |
| D18P | 2.23 |
| D18T | 2.31 |
| D18L | 2.62 |
| D18S | 2.58 |
| D18F | 2.33 |
| D18C | 1.65 |
| D18Q | 2.47 |
| D18W | 1.62 |
| D18R | 2.07 |
| D18N | 2.25 |
| D18I | 2.02 |
| D18V | 2.34 |
| D18K | 2.52 |
| D18A | 2.13 |
| D18H | 2.28 |
| D18M | 1.83 |
| D18Y | 2.36 |
| D18G | 2.3 |
| D18E | 2.76 |
| V20M | 2.59 |
| V20A | 3.64 |
| V20L | 2.45 |
| V20S | 2.74 |
| V20P | 3.26 |
| V20T | 3.74 |

| Variant | protein stability index |
| --- | --- |
| V20D | 3.81 |
| V20H | 3.41 |
| V20C | 2.69 |
| V20W | 1.57 |
| V20K | 3.06 |
| V20N | 3.66 |
| V20Q | 4.09 |
| V20G | 4 |
| V20Y | 2.71 |
| V20E | 4.03 |
| V20F | 2.02 |
| V20R | 3.3 |
| V20I | 2.19 |
| I22H | 3.58 |
| I22C | 3.17 |
| I22D | 4.25 |
| I22N | 3.49 |
| I22L | 2.34 |
| I22W | 1.67 |
| I22G | 3.85 |
| I22T | 3.87 |
| I22E | 4.08 |
| I22V | 3.02 |
| I22M | 2.63 |
| I22F | 3.03 |

| Variant | protein stability index |
| --- | --- |
| I22R | 3.53 |
| I22K | 3.74 |
| I22S | 4.26 |
| I22P | 3.99 |
| I22Q | 3.74 |
| I22Y | 3.1 |
| I22A | 3.56 |
| I23H | 3.47 |
| I23C | 2.73 |
| I23Y | 2.11 |
| I23F | 2.1 |
| I23V | 3.22 |
| I23A | 3.95 |
| I23K | 3.35 |
| I23R | 2.9 |
| I23D | 4.42 |
| I23L | 3.71 |
| I23T | 3.88 |
| I23M | 2.83 |
| I23Q | 3.35 |
| I23G | 3.52 |
| I23W | 2.35 |
| I23S | 3.21 |
| I23N | 3.77 |
| I23P | 3.24 |

| Variant | protein stability index |
| --- | --- |
| I23E | 4.13 |
| C24I | 2.49 |
| C24P | 3.87 |
| C24M | 2.28 |
| C24L | 2.38 |
| C24S | 3.91 |
| C24D | 4.46 |
| C24K | 3.29 |
| C24A | 3.96 |
| C24G | 3.8 |
| C24Q | 4.31 |
| C24Y | 2.08 |
| C24H | 3.23 |
| C24N | 3.42 |
| C24R | 3.57 |
| C24W | 3.05 |
| C24E | 3.88 |
| C24T | 3.61 |
| C24V | 1.95 |
| C24F | 1.88 |

Variants of: B2
Test: as above
Settings: c terminus: a fixed tail appended

| Variant | protein stability index |
| --- | --- |
| P5C | 1.77 |
| P5H | 1.95 |
| P5V | 1.57 |
| P5F | 1.82 |
| P5I | 2.88 |
| P5K | 2.68 |
| P5S | 1.89 |
| P5M | 1.53 |
| P5Y | 1.64 |
| P5W | 2.33 |
| G14S | 2.07 |
| G14F | 1.93 |
| G14R | 2.04 |
| G14T | 1.46 |
| G14P | 2.38 |
| G14K | 1.68 |
| G14D | 2.99 |
| G14W | 2.02 |
| G14I | 1.74 |
| G14E | 2.15 |
| G14N | 2.19 |
| Y16P | 3.04 |
| Y16D | 3.39 |
| Y16L | 1.98 |

| Variant | protein stability index |
| --- | --- |
| Y16A | 3.01 |
| Y16F | 1.66 |
| Y16V | 2.35 |
| V17N | 2.36 |
| V17Y | 1.95 |
| V17I | 2.24 |
| V17Q | 2.5 |
| V17F | 1.77 |
| V17C | 1.89 |
| V17D | 3.24 |
| V17E | 2.85 |
| A22M | 1.65 |
| A22H | 1.78 |
| A22P | 2.49 |
| A22L | 3.29 |
| A22I | 1.87 |
| A22Y | 2.21 |
| A22N | 2.35 |
| A22E | 2.35 |
| A22T | 1.9 |
| A22K | 2.08 |
| H3A | 1.84 |
| H3D | 2.86 |
| H3Q | 1.91 |

| Variant | protein stability index |
| --- | --- |
| H3F | 2.35 |
| H3P | 1.77 |
| H3G | 2.1 |
| H3V | 1.64 |
| H3N | 2.03 |
| H3S | 2.15 |
| H3E | 2.28 |
| H3R | 1.56 |
| H3M | 1.92 |
| G15P | 2.63 |
| G15Q | 1.38 |
| G15V | 1.62 |
| G15Y | 2.16 |
| G15K | 2.63 |
| G15R | 2.11 |
| T1W | 2.54 |
| T1G | 2.15 |
| T1I | 1.72 |
| T1E | 2.06 |
| T1S | 2.11 |
| T1Y | 2.31 |
| T1A | 2.06 |
| T1H | 2.07 |
| T1V | 1.74 |

| Variant | protein stability index |
| --- | --- |
| L9P | 2.18 |
| L9Y | 1.97 |
| L9D | 2.24 |
| L9N | 1.97 |
| L9Q | 2.01 |
| L9I | 1.85 |
| L9H | 1.73 |
| L9S | 1.75 |
| L9M | 2.03 |
| L9K | 2.47 |
| I19S | 2.76 |
| I19P | 3.11 |
| I19V | 2.12 |
| I19D | 3.07 |
| I19C | 2.3 |
| I19G | 3.3 |
| I19M | 2.79 |
| I19T | 2.94 |
| I19R | 2.96 |
| I19Y | 2.46 |
| K18N | 2.18 |
| K18H | 1.79 |
| K18F | 3.63 |
| K18P | 2.19 |

| Variant | protein stability index |
| --- | --- |
| K18C | 1.49 |
| K18S | 1.97 |
| N12S | 2.21 |
| N12R | 1.53 |
| N12V | 2.03 |
| N12E | 3.02 |
| N12P | 1.49 |
| N12G | 2 |
| Q2P | 2.02 |
| Q2E | 2.08 |
| Q2D | 2.02 |
| Q2G | 2.5 |
| Q2H | 1.52 |
| Q2N | 2.05 |
| Q2L | 2.17 |
| L4G | 1.96 |
| L4F | 2.06 |
| L4I | 1.86 |
| L4R | 2.04 |
| L4S | 1.8 |
| L4C | 2.43 |
| L4H | 2.53 |
| L4Q | 2.82 |
| L4E | 2.46 |

| Variant | protein stability index |
| --- | --- |
| E7A | 1.82 |
| E7I | 2.52 |
| E7M | 2.33 |
| E7Y | 2.19 |
| E7Q | 1.63 |
| E7T | 1.42 |
| E11I | 1.89 |
| E11M | 2.46 |
| E11F | 1.8 |
| E11N | 1.41 |
| E11Q | 1.71 |
| E11A | 1.97 |
| T23D | 2.37 |
| T23A | 1.83 |
| T23F | 2.17 |
| T23N | 2.06 |
| T23M | 1.83 |
| T23G | 1.9 |
| T23W | 2.94 |
| T23R | 1.89 |
| T23C | 1.38 |
| T23H | 2.09 |
| C8H | 2.56 |
| C8K | 1.93 |

| Variant | protein stability index |
| --- | --- |
| C8E | 2.24 |
| L13W | 2.54 |
| L13T | 2.28 |
| L13C | 1.55 |
| L13H | 2.21 |
| L13I | 1.91 |
| L13K | 1.96 |
| L13V | 2.17 |
| L21T | 2.27 |
| L21C | 2.06 |
| L21R | 2.97 |
| L21E | 3.27 |
| L21W | 1.76 |
| L21P | 2.78 |
| L21A | 2.09 |
| L21Y | 1.97 |
| L21D | 3.46 |
| L21K | 3.35 |
| L21G | 2.85 |
| L21S | 2.73 |
| L21F | 1.76 |
| L21V | 2.36 |
| P10F | 1.97 |
| P10E | 2.44 |

| Variant | protein stability index |
| --- | --- |
| P10K | 1.77 |
| P10R | 2.24 |
| P10M | 2.04 |
| P10T | 1.62 |
| P10L | 1.55 |
| W24G | 3.38 |
| W24L | 2.12 |
| W24Y | 1.91 |
| W24F | 1.8 |
| R6I | 1.99 |
| R6H | 1.63 |
| R6W | 1.57 |
| R6S | 2.18 |
| R6K | 2.2 |
| D20E | 1.67 |
| D20R | 1.9 |
| D20L | 1.66 |
| D20P | 1.69 |
| D20N | 1.78 |
| D20T | 2.51 |
| D20V | 2.73 |
